B1: DNA repair protein XRCC4 (Homo sapiens), Q13426 (parent)
chain: MERKISRIHLVSEPSITHFLQVSWEKTLESGFVITLTDGHSAWTGTVSESEISQEADDMAMEKGKYVGELRKALLSGAGPADVYTFNFSKESCYFFFEKNLKDVSFRLGSFNLEKVENPAEVIRELICYCLDTIAENQAKNEHLQKENERLLRDWNDVQGRFEKCVSAKEALETDLYKRFILVLNEKKTKIRSLHNKLLNAAQEREKDIKQEGETAICSEMTADRDPVYDESTDEESENQTDLSGLASAAVSKDDSIISSLDVTDIAPSRKRRQRMQRNLGTEPKMAPQENQLQEKENSRPDSSLPETSKKEHISAENMSLETLRNSSPEDLFDEI

Variants of: B1
Details: with NHEJ1, Q9H9Q4-1
Chain of NHEJ1, Q9H9Q4-1 (Q9H9Q4 whole entry): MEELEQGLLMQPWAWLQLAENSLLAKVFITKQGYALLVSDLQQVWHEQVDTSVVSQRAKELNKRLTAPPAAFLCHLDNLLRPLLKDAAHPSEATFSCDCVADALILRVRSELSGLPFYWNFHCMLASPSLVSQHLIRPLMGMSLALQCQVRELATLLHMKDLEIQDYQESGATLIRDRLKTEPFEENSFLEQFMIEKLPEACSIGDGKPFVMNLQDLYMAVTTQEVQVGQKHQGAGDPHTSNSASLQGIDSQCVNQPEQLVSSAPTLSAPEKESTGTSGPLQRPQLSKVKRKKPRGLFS

Row | Variant | effect of a mutation on the interaction
1 | M61R | disrupting interaction strength
2 | E55R | disrupting interaction strength
3 | K65E | decreasing interaction strength
4 | D58R | disrupting interaction strength
5 | F106A | decreasing interaction strength
6 | F106Y | decreasing interaction strength
7 | F106E | disrupting interaction strength
